Data set [1] deals with T1, PgMntR (Porphyromonas gingivalis W50 (W83 locus PG1044)) (UniProt Q7MVL0).
T1 sequence: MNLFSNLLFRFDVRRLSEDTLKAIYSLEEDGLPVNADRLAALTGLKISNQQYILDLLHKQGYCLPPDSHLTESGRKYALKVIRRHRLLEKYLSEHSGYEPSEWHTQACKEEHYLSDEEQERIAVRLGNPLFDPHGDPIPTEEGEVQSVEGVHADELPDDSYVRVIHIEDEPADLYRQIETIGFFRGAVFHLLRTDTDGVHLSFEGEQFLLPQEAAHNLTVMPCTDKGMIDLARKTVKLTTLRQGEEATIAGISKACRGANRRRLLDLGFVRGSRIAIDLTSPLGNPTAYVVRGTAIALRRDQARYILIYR
Kind of data set: EMSA. The following applies: EMSA: 1 nM biotinylated DNA, 700-1000 nM protein, 90 mM Bis-Tris borate pH 6.8 (1 mM TCEP, 5 mM DTT) or 10 mM Tris-Cl pH 7.5 or Tris-acetate pH 6.8, 50 mM KCl …. A general note: Mobility shift assays separate free from complexed probe on a gel.

Data set [2] deals with PgMntR C108E variant (Porphyromonas gingivalis W50). Kind of data set: AUC; sedimentation velocity; 10 or 60 uM protein in TBS (50 mM Tris-Cl, 150 mM NaCl, pH 7.5), 20 C, 40,000 rpm; without divalent metal, also with Mn2+ and with 2 mM TCEP; c(s) fit in SEDFIT.
Data set [3] has as its target PgMntR 4Ala variant (D19A/C108A/E111A/H112A) (Porphyromonas gingivalis W50). The data set is described as above.
The target of data set [4] is PgMntR D19M variant (Porphyromonas gingivalis W50). The description is as above.
Data set [5] has as its target PgMntR (Porphyromonas gingivalis manganese transport regulator orthologue, PG1044), recombinant wild type (Porphyromonas gingivalis W50). Described as above.
The target in data set [6] is PgMntR ΔFeoA2 (PgMntR without the final C-terminal FeoA domain) (Porphyromonas gingivalis W50). The description is as above.

The values below come from publication PMC4805248.

Take “GATAGCGCAAAAATACTAACTAAACCAATGAATAAACGAGAAATACAATTTATTATTAAAGAGACTGTTGCACAATAACCCTCTCCCCCTCTCATATTGATCAAGACAGACACAAGCATTGATTTGACGAAGAAAGGAGAGCTTCATGCAATCTCTCTGCAAACCTCAAGTAATCTGAAAAACACTTAAGAATCAGCTCTGCGGCAAAAGACTTCAATGAAAGTCCTATAAAATAGTTGCAAACAGCTGATAGTTAGCGCATTGATGGGAGC (double strand) [FB1p (feoB1 promoter)]”: the binding result in data set [1] is listed as “no binding”.
The term stoichiometry N denotes the number of molecules, sites or subunits per partner or assembly. PgMntR C108E variant (natural protein): the stoichiometry N in data set [2] worked out at 2.
Turning to “PgMntR 4Ala variant (D19A/C108A/E111A/H112A) (natural protein)”, the stoichiometry N in data set [3] was found to be 2.
In the case of PgMntR D19M variant (natural protein), the stoichiometry N in data set [4] was determined as 2.
With “PgMntR (Porphyromonas gingivalis manganese transport regulator orthologue, PG1044), recombinant wild type (natural protein)”, the stoichiometry N in data set [5] turned out to be 2.
With “PgMntR ΔFeoA2 (PgMntR without the final C-terminal FeoA domain) (domain or fragment)”, in data set [6], the stoichiometry N turned out to be 2.
